Where no end group is shown, it is not given here.
Experiments:
[1] = molecular target: phoenixin binding sites on rat pituitary adenoma cells, RC-4B/C (rat); assay: displacement of 50 pM 125I-Y0-Phoenixin-20 amide from RC-4B/C cells, gamma counting
[2] = molecular target: antibodies raised to …-NH2 (SEQ. ID NO: 7); assay: RIA or EIA, competitive immunoassay with antibodies raised to SEQ ID NO: 7; standard peptide not named

| IC50 [1] [nM] | EC50 [2] [ng/mL] | Binder |
| --- | --- | --- |
| 17.9 | – | DVQPPGLKVWSDPF-NH2 [phoenixin-14 amide, …-NH2] |
| 21.5 | 0.2 | AGIVQEDVQPPGLKVWSDPF-NH2 [Phoenixin-20 amide, …-NH2] |
